The record followed here is PMC10786891, “Massively parallel profiling of RNA-targeting CRISPR-Cas13d”.

Numbering of substitutions follows the chain as printed. In names and notes the source's numbering stands.

To fix the notation:
T1: EsCas13d, nuclease-dead (Eubacterium siraeum, UniProt B0MS50, R295A;H300A;R849A;H854A)
T1 sequence: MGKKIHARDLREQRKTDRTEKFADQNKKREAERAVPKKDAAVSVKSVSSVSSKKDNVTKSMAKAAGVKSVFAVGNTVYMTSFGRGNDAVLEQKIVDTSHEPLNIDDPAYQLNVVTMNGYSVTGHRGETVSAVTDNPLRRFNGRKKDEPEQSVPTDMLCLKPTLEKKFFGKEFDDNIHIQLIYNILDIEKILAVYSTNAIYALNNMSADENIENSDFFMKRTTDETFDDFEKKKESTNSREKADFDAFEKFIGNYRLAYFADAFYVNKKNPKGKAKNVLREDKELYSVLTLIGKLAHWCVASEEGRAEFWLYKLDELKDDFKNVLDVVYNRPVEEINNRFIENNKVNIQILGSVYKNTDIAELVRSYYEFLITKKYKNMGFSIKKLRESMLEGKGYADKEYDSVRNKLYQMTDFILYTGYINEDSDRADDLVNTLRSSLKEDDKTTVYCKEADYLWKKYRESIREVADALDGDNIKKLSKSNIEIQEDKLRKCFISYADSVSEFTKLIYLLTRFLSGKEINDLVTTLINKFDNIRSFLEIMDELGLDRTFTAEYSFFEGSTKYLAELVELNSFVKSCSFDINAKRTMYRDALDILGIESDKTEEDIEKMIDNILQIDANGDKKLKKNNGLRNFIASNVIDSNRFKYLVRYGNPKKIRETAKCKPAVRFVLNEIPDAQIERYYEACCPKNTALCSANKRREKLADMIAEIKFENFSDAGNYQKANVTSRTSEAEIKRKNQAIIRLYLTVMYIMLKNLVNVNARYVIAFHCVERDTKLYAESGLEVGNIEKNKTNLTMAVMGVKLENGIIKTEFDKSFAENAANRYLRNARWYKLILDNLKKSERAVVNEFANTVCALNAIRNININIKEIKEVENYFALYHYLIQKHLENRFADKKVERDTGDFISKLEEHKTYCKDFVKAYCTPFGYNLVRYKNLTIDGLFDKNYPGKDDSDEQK

B1: target 2 MT 5'PFS GGC 3'PFS CAU (mixed)
RNA 1: CACCCGUGCAAAAUUGCAGGGGUCUAAAACCUUCUCCAAAUUGUUUCAUCCU
RNA 2: GGGAAUGGAUCCACAUCUACGAAUUCGGCAGGAUGAAACAAUUUGGAGAAGCAUAGAUCGGAAGAGCACACGU
B2: target 2 MT 5'PFS AUU 3'PFS CGC (mixed)
RNA 1: B1 RNA 1
RNA 2: B1 RNA 2 with G27A, G28U, C29U, A53G, U54C
B3: target 2 MT 5'PFS CAC 3'PFS CCU (mixed)
RNA 1: B1 RNA 1
RNA 2: B1 RNA 2 with G27C, G28A, A53C
B4: target 2 MT 5'PFS GUA 3'PFS UCG (mixed)
RNA 1: B1 RNA 1
RNA 2: B1 RNA 2 with G28U, C29A, C52U, A53C, U54G
B5: target 2 MT 5'PFS AUC 3'PFS CAG (mixed)
RNA 1: B1 RNA 1
RNA 2: B1 RNA 2 with G27A, G28U, U54G
B6: target 2 MT 5'PFS AUA 3'PFS UAU (mixed)
RNA 1: B1 RNA 1
RNA 2: B1 RNA 2 with G27A, G28U, C29A, C52U
B7: target 2 MT 5'PFS GUA 3'PFS AAA (mixed)
RNA 1: B1 RNA 1
RNA 2: B1 RNA 2 with G28U, C29A, C52A, U54A
B8: target 2 MT 5'PFS CAC 3'PFS CCA (mixed)
RNA 1: B1 RNA 1
RNA 2: B1 RNA 2 with G27C, G28A, A53C, U54A
B9: target 2 MT 5'PFS GUA 3'PFS CCG (mixed)
RNA 1: B1 RNA 1
RNA 2: B1 RNA 2 with G28U, C29A, A53C, U54G
B10: target 2 MT 5'PFS AAA 3'PFS UAC (mixed)
RNA 1: B1 RNA 1
RNA 2: B1 RNA 2 with G27A, G28A, C29A, C52U, U54C
B11: target 2 MT 5'PFS GGG 3'PFS UUC (mixed)
RNA 1: B1 RNA 1
RNA 2: B1 RNA 2 with C29G, C52U, A53U, U54C
B12: target 2 MT 5'PFS GGG 3'PFS UUA (mixed)
RNA 1: B1 RNA 1
RNA 2: B1 RNA 2 with C29G, C52U, A53U, U54A
B13: target 2 MT 5'PFS UAG 3'PFS AGA (mixed)
RNA 1: B1 RNA 1
RNA 2: B1 RNA 2 with G27U, G28A, C29G, C52A, A53G, U54A
B14: target 2 MT 5'PFS GAC 3'PFS UGA (mixed)
RNA 1: B1 RNA 1
RNA 2: B1 RNA 2 with G28A, C52U, A53G, U54A
B15: target 2 MT 5'PFS CAU 3'PFS CAG (mixed)
RNA 1: B1 RNA 1
RNA 2: B1 RNA 2 with G27C, G28A, C29U, U54G
B16: target 2 MT 5'PFS GGG 3'PFS UUU (mixed)
RNA 1: B1 RNA 1
RNA 2: B1 RNA 2 with C29G, C52U, A53U
B17: target 2 MT 5'PFS AUC 3'PFS ACU (mixed)
RNA 1: B1 RNA 1
RNA 2: B1 RNA 2 with G27A, G28U, C52A, A53C
B18: target 2 MT 5'PFS GAC 3'PFS UGC (mixed)
RNA 1: B1 RNA 1
RNA 2: B1 RNA 2 with G28A, C52U, A53G, U54C
B19: target 2 MT 5'PFS UUG 3'PFS UCA (mixed)
RNA 1: B1 RNA 1
RNA 2: B1 RNA 2 with G27U, G28U, C29G, C52U, A53C, U54A
B20: target 2 MT 5'PFS UAG 3'PFS AGG (mixed)
RNA 1: B1 RNA 1
RNA 2: B1 RNA 2 with G27U, G28A, C29G, C52A, A53G, U54G
B21: target 2 MT 5'PFS CAC 3'PFS CCC (mixed)
RNA 1: B1 RNA 1
RNA 2: B1 RNA 2 with G27C, G28A, A53C, U54C
B22: target 2 MT 5'PFS AGU 3'PFS UCU (mixed)
RNA 1: B1 RNA 1
RNA 2: B1 RNA 2 with G27A, C29U, C52U, A53C
B23: target 2 MT 5'PFS AUA 3'PFS UAA (mixed)
RNA 1: B1 RNA 1
RNA 2: B1 RNA 2 with G27A, G28U, C29A, C52U, U54A
B24: target 2 MT 5'PFS GUA 3'PFS AAG (mixed)
RNA 1: B1 RNA 1
RNA 2: B1 RNA 2 with G28U, C29A, C52A, U54G
B25: target 2 MT 5'PFS AGU 3'PFS UCC (mixed)
RNA 1: B1 RNA 1
RNA 2: B1 RNA 2 with G27A, C29U, C52U, A53C, U54C
B26: target 2 MT 5'PFS UUG 3'PFS UCU (mixed)
RNA 1: B1 RNA 1
RNA 2: B1 RNA 2 with G27U, G28U, C29G, C52U, A53C
B27: target 2 MT 5'PFS AUC 3'PFS CAU (mixed)
RNA 1: B1 RNA 1
RNA 2: B1 RNA 2 with G27A, G28U
B28: target 2 MT 5'PFS GUA 3'PFS AAU (mixed)
RNA 1: B1 RNA 1
RNA 2: B1 RNA 2 with G28U, C29A, C52A
B29: target 2 MT 5'PFS AUA 3'PFS UAC (mixed)
RNA 1: B1 RNA 1
RNA 2: B1 RNA 2 with G27A, G28U, C29A, C52U, U54C
B30: target 2 MT 5'PFS UAG 3'PFS AGC (mixed)
RNA 1: B1 RNA 1
RNA 2: B1 RNA 2 with G27U, G28A, C29G, C52A, A53G, U54C
B31: target 2 MT 5'PFS CAU 3'PFS AAU (mixed)
RNA 1: B1 RNA 1
RNA 2: B1 RNA 2 with G27C, G28A, C29U, C52A
B32: target 2 MT 5'PFS AGG 3'PFS AGU (mixed)
RNA 1: B1 RNA 1
RNA 2: B1 RNA 2 with G27A, C29G, C52A, A53G
B33: target 1 insC 3' of 16,insG 3' of 7 (mixed)
RNA 1: CACCCGUGCAAAAAUGCAGGGGUCUAAAACUGAGCGGAUAACCUCUCUAUGG
RNA 2: GGGAAUGGAUCCACAUCUACGAAUUCGUACCAUAGACGAGGUUAUCGCGCUCACCGAGAUCGGAAGAGCACACGU
B34: target 1 insU 3' of 22,insA 3' of 19 (mixed)
RNA 1: B33 RNA 1
RNA 2: GGGAAUGGAUCCACAUCUACGAAUUCGUACUCAUAAGAGAGGUUAUCCGCUCACCGAGAUCGGAAGAGCACACGU
B35: target 1 insA 3' of 13,insC 3' of 10 (mixed)
RNA 1: B33 RNA 1
RNA 2: B34 RNA 2 with U31C, C32A, A33U, U34A, A35G, G42U, U44C
B36: target 1 C21U,C22U (mixed)
RNA 1: B33 RNA 1
RNA 2: GGGAAUGGAUCCACAUCUACGAAUUCGUAUUAUAGAGAGGUUAUCCGCUCACCGAGAUCGGAAGAGCACACGU

In the series the target is T1, EsCas13d, nuclease-dead. As to the kind of experiment: crRNA (strand 1, pre-loaded); Mg2+; 40 mM Tris-HCl pH 7.5, 150 mM NaCl, 6 mM MgCl2, 1 mM DTT, 0.1% Tween-20, 0.2 mg/ml BSA; 25 C; 10 min per concentration, then washed. The conditions noted are these: tags: His6-TwinStrep-SUMO cleaved; N-terminal SNAP kept (SNAP-Surface 488); label: 3' end held by stalled T7 RNA polymerase.
For B1, the affinity, expressed as Kd, was 14.4 ± 2 nM.

B2 returned a Kd of 7.8 ± 0.6 nM.

B3 came in with a Kd of about 33 nM. Regarding B4, the affinity, expressed as Kd, was 9.5 ± 0.7 nM. Next, B5: 80 ± 40 nM. The value for B6 was 7.1 ± 1.4 nM.

B7: the equilibrium dissociation constant (Kd) was 5.5 ± 0.7 nM. The value for B8 was 4.5 ± 1.2 nM; that for B9 was 9.6 ± 0.6 nM; that for B10 was about 6.7 nM. As for B11, the affinity, expressed as Kd, was 42 ± 15 nM. In the case of B12, the Kd is 14.9 ± 1.7 nM. As for B13, binding was put at a Kd of 2.53 ± 0.33 nM. Next, B14: 12.9 ± 2 nM; B15: 3.25 ± 0.3 nM; B16: 48 ± 12 nM. Regarding B17, the Kd is about 41 nM. On to B18, for which the Kd came to 14.4 ± 2.7 nM.

In the case of B19, the Kd was about 70 nM.

B20 displayed a Kd of 2.74 ± 0.24 nM.

Molecule B21 had a Kd of 25 ± 10 nM. In turn, B22 registered a Kd of 21.3 ± 3.4 nM. In the case of B23, the Kd came to 5.5 ± 1.1 nM. The value for B24 was 7 ± 0.6 nM. As for B25, the dissociation constant Kd was about 51 nM. Next, B26: 27.6 ± 3.4 nM. In turn, B27 registered a Kd of 78 ± 27 nM. Molecule B28 came in with a Kd of 5.8 ± 0.6 nM.

For B29, the dissociation constant Kd worked out at 7.2 ± 1.6 nM. In turn, B30 showed a Kd of 1.91 ± 0.21 nM. The value for B31 was 4.4 ± 0.7 nM; that for B32 was 4.04 ± 0.32 nM. Take B33: binding was characterised by a dissociation constant (Kd) of 66 ± 14 nM. B34 came in with a dissociation constant Kd of 80 ± 14 nM.

B35 returned a Kd of 9.2 ± 0.9 nM. Next, B36: 29 ± 4 nM.

As a reminder, the Kd is the equilibrium constant for the complex coming apart. A high value points to weaker binding.
